The record followed here is patent US20090285799A1 (CSL, published 2009).

Assay [1] deals with T1, human IL-13Rα1 on normal human dermal fibroblast (NHDF) cells (human, UniProt P78552 27-427).
T1 sequence: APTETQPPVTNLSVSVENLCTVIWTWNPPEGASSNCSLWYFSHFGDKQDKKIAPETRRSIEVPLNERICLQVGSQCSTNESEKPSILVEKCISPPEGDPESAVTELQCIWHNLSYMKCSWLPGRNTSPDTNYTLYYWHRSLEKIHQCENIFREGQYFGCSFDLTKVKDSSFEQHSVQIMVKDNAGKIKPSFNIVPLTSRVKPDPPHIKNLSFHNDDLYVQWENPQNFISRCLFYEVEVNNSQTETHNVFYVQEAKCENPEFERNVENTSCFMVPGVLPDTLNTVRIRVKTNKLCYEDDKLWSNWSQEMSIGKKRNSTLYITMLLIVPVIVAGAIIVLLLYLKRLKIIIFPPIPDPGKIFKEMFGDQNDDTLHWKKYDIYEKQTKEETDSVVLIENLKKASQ
Put plainly: cell-based or functional assay.

The target in assay [2] is T2, hIL-13Rα1.ECR (N-terminal FLAG-tagged fusion protein of the extracellular region of human IL-13Rα1) (human, UniProt P78552 29-343).
T2 construct: also called human IL-13Rα1.ECR; hIL-13Rα1 extracellular domain
T2 sequence: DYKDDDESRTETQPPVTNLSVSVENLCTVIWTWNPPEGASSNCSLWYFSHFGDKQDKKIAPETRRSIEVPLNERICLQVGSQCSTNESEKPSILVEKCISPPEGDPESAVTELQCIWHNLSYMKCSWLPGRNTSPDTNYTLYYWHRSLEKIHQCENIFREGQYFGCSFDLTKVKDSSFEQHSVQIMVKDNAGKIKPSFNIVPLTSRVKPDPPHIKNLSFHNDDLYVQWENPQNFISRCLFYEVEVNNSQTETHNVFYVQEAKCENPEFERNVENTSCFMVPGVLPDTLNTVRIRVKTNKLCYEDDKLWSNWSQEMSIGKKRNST
Put plainly: KINEXA kinetic exclusion assay, full-length IgG4. On the technique in general: In KinExA the mixture passes briefly over coated beads that capture the unbound partner.

For assay [3], the target named is T2, hIL-13Rα1.ECR (N-terminal FLAG-tagged …). Put plainly: BIACORE SPR, chip-bound hIL-13Rα1 extracellular domain, Fab format. (In general: SPR reads the build-up and loss of mass on a sensor chip optically.)

B1: 8B4-IgG4 (antibody, V domains shown)
VH: EVQVLESGGGLVQPGGSLRLSCAASGFTFSNYAMTWVRQAPGKGLEWVSTISGRGYSIYYADSVKGRFTISRDNSKNTVYLQMNSLRAEDTAVYYCAKEEGHWYFDVWGRGTLVTVSS
VL: EIVLTQSPDFQSVTPKEKVTITCRASQSIGSSLHWYQQKPDQSPKLLIKYASQSFSGVPSRFSGSGSGTDFTLTINSLEAEDAAAYYCHQSSSLPYTFGQGTKLEIK
notes: Recombinant full-length antibody of subclass IgG4 with kappa light chain (Lonza pCONGAMMA4/pCONKAPPA vectors), made in 293 cells
As to B1, the “inhibition of eotaxin release from NHDF cells upon stimulation with IL-13 (IC50)” value (shortened to “inhibition of eotaxin release”) in assay [1] was roughly 1 µg/mL. For the same molecule, binding in assay [2] was put at a Kd of 0.68 nM.

B2: 8B4-36 (eotaxin assay) (antibody, V domains shown)
VH: EVQVLESGGGLVQPGGSLRLSCAASGFTFSNYAMTWVRQAPGKGLEWVSTISGRGYSIYYADSVKGRFTISRDNSKNTVYLQMNSLRAEDTAVYYCAKEEGHWYFDVWGRGTLVTVSS
VL: EIVLTQSPDFQSVTPKEKVTITCRASQSIGSSLHWYQQKPDQSPKLLIKYASQSFSGVPSRFSGSGSGTDFTLTINSLEAEDAAAYYCVSSWGLPYTFGQGTKLEIK
As to B2, the “inhibition of eotaxin release” value in assay [1] turned out to be 0.17 µg/mL.

B3: 8B4-78M (optimized antibody, eotaxin assay) (antibody, V domains shown)
VH: EVQVLESGGGLVQPGGSLRLSCAASGFTFSNYAMTWVRQAPGKGLEWVSTISGRGYSIYYADSVKGRFTISRDNSKNTVYLQMNSLRAEDTAVYYCAKEEGHWYFDVWGRGTLVTVSS
VL: EIVLTQSPDFQSVTPKEKVTITCRASQSIGSSLHWYQQKPDQSPKLLIKYASQSFSGVPSRFSGSGSGTDFTLTINSLEAEDAAAYYCMSSMGLPYTFGQGTKLEIK
For the molecule B3, in assay [1], the “inhibition of eotaxin release” value was roughly 0.1 µg/mL.

B4: 8B4 (Fab) (Fab, V domains shown)
VH: EVQVLESGGGLVQPGGSLRLSCAASGFTFSNYAMTWVRQAPGKGLEWVSTISGRGYSIYYADSVKGRFTISRDNSKNTVYLQMNSLRAEDTAVYYCAKEEGHWYFDVWGRGTLVTVSS
VL: EIVLTQSPDFQSVTPKEKVTITCRASQSIGSSLHWYQQKPDQSPKLLIKYASQSFSGVPSRFSGSGSGTDFTLTINSLEAEDAAAYYCHQSSSLPYTFGQGTKLEIK
notes: Fab format from vector pFab3d
Molecule B4 showed a Kd in assay [3] of 2.15 nM.

B5: 8B4-82 (eotaxin assay) (antibody, V domains shown)
VH: EVQVLESGGGLVQPGGSLRLSCAASGFTFSNYAMTWVRQAPGKGLEWVSTISGRGYSIYYADSVKGRFTISRDNSKNTVYLQMNSLRAEDTAVYYCAKEEGHWYFDVWGRGTLVTVSS
VL: EIVLTQSPDFQSVTPKEKVTITCRASQSIGSSLHWYQQKPDQSPKLLIKYASQSFSGVPSRFSGSGSGTDFTLTINSLEAEDAAAYYCASSRGLPYTFGQGTKLEIK
In the case of B5, the “inhibition of eotaxin release” value in assay [1] amounted to 1.31 µg/mL.

B6: 8B4-21C (eotaxin assay) (antibody, V domains shown)
VH: EVQVLESGGGLVQPGGSLRLSCAASGFTFSNYAMTWVRQAPGKGLEWVSTISGRGYSIYYADSVKGRFTISRDNSKNTVYLQMNSLRAEDTAVYYCAKEEGHWYFDVWGRGTLVTVSS
VL: EIVLTQSPDFQSVTPKEKVTITCRASQSIGSSLHWYQQKPDQSPKLLIKYASQSFSGVPSRFSGSGSGTDFTLTINSLEAEDAAAYYCKSSAGLPYTFGQGTKLEIK
As to B6, the “inhibition of eotaxin release” value in assay [1] was 0.75 µg/mL.

B7: 8B4-74C (eotaxin assay) (antibody, V domains shown)
VH: EVQVLESGGGLVQPGGSLRLSCAASGFTFSNYAMTWVRQAPGKGLEWVSTISGRGYSIYYADSVKGRFTISRDNSKNTVYLQMNSLRAEDTAVYYCAKEEGHWYFDVWGRGTLVTVSS
VL: EIVLTQSPDFQSVTPKEKVTITCRASQSIGSSLHWYQQKPDQSPKLLIKYASQSFSGVPSRFSGSGSGTDFTLTINSLEAEDAAAYYCMSSLGLPYTFGQGTKLEIK
For the molecule B7, the “inhibition of eotaxin release” value in assay [1] is 0.1 µg/mL.

B8: 8B4-18C-IgG4 (antibody, V domains shown)
VH: EVQVLESGGGLVQPGGSLRLSCAASGFTFSNYAMTWVRQAPGKGLEWVSTISGRGYSIYYADSVKGRFTISRDNSKNTVYLQMNSLRAEDTAVYYCAKEEGHWYFDVWGRGTLVTVSS
VL: EIVLTQSPDFQSVTPKEKVTITCRASQSIGSSLHWYQQKPDQSPKLLIKYASQSFSGVPSRFSGSGSGTDFTLTINSLEAEDAAAYYCMNSLGLPYTFGQGTKLEIK
notes: Full-length IgG4, kappa
B8: binding in assay [2] was characterised by a dissociation constant (Kd) of 0.051 nM.

B9: 8B4-80C (Fab) (Fab, V domains shown)
VH: EVQVLESGGGLVQPGGSLRLSCAASGFTFSNYAMTWVRQAPGKGLEWVSTISGRGYSIYYADSVKGRFTISRDNSKNTVYLQMNSLRAEDTAVYYCAKEEGHWYFDVWGRGTLVTVSS
VL: EIVLTQSPDFQSVTPKEKVTITCRASQSIGSSLHWYQQKPDQSPKLLIKYASQSFSGVPSRFSGSGSGTDFTLTINSLEAEDAAAYYCMSSWGLPYTFGQGTKLEIK
notes: Fab format; only CDR3s were mutated
On to B9, for which the Kd in assay [3] stood at 0.25 nM.

B10: 8B4-18C (Fab) (Fab, V domains shown)
VH: EVQVLESGGGLVQPGGSLRLSCAASGFTFSNYAMTWVRQAPGKGLEWVSTISGRGYSIYYADSVKGRFTISRDNSKNTVYLQMNSLRAEDTAVYYCAKEEGHWYFDVWGRGTLVTVSS
VL: EIVLTQSPDFQSVTPKEKVTITCRASQSIGSSLHWYQQKPDQSPKLLIKYASQSFSGVPSRFSGSGSGTDFTLTINSLEAEDAAAYYCMNSLGLPYTFGQGTKLEIK
notes: as for B9
For B10, binding in assay [3] was characterised by a dissociation constant (Kd) of 0.085 nM.

B11: 8B4-21C (Fab) (Fab, V domains shown)
VH: EVQVLESGGGLVQPGGSLRLSCAASGFTFSNYAMTWVRQAPGKGLEWVSTISGRGYSIYYADSVKGRFTISRDNSKNTVYLQMNSLRAEDTAVYYCAKEEGHWYFDVWGRGTLVTVSS
VL: EIVLTQSPDFQSVTPKEKVTITCRASQSIGSSLHWYQQKPDQSPKLLIKYASQSFSGVPSRFSGSGSGTDFTLTINSLEAEDAAAYYCKSSAGLPYTFGQGTKLEIK
notes: as for B9
The molecule B11 yielded a Kd in assay [3] of 0.17 nM.

B12: 8B4-36 (Fab) (Fab, V domains shown)
VH: EVQVLESGGGLVQPGGSLRLSCAASGFTFSNYAMTWVRQAPGKGLEWVSTISGRGYSIYYADSVKGRFTISRDNSKNTVYLQMNSLRAEDTAVYYCAKEEGHWYFDVWGRGTLVTVSS
VL: EIVLTQSPDFQSVTPKEKVTITCRASQSIGSSLHWYQQKPDQSPKLLIKYASQSFSGVPSRFSGSGSGTDFTLTINSLEAEDAAAYYCVSSWGLPYTFGQGTKLEIK
notes: as for B9
Regarding B12, in assay [3], the Kd amounted to 0.085 nM.

B13: 8B4-78M (Fab) (Fab, V domains shown)
VH: EVQVLESGGGLVQPGGSLRLSCAASGFTFSNYAMTWVRQAPGKGLEWVSTISGRGYSIYYADSVKGRFTISRDNSKNTVYLQMNSLRAEDTAVYYCAKEEGHWYFDVWGRGTLVTVSS
VL: EIVLTQSPDFQSVTPKEKVTITCRASQSIGSSLHWYQQKPDQSPKLLIKYASQSFSGVPSRFSGSGSGTDFTLTINSLEAEDAAAYYCMSSMGLPYTFGQGTKLEIK
notes: as for B9
For B13, binding in assay [3] was characterised by a dissociation constant (Kd) of 0.049 nM.

B14: 8B4-82 (Fab) (Fab, V domains shown)
VH: EVQVLESGGGLVQPGGSLRLSCAASGFTFSNYAMTWVRQAPGKGLEWVSTISGRGYSIYYADSVKGRFTISRDNSKNTVYLQMNSLRAEDTAVYYCAKEEGHWYFDVWGRGTLVTVSS
VL: EIVLTQSPDFQSVTPKEKVTITCRASQSIGSSLHWYQQKPDQSPKLLIKYASQSFSGVPSRFSGSGSGTDFTLTINSLEAEDAAAYYCASSRGLPYTFGQGTKLEIK
notes: as for B9
Turning to B14, binding in assay [3] was characterised by a dissociation constant (Kd) of 0.073 nM.

B15: 8B4-78M-IgG4 (antibody, V domains shown)
VH: EVQVLESGGGLVQPGGSLRLSCAASGFTFSNYAMTWVRQAPGKGLEWVSTISGRGYSIYYADSVKGRFTISRDNSKNTVYLQMNSLRAEDTAVYYCAKEEGHWYFDVWGRGTLVTVSS
VL: EIVLTQSPDFQSVTPKEKVTITCRASQSIGSSLHWYQQKPDQSPKLLIKYASQSFSGVPSRFSGSGSGTDFTLTINSLEAEDAAAYYCMSSMGLPYTFGQGTKLEIK
notes: Full-length IgG4, kappa
Molecule B15 returned a Kd in assay [2] of 0.038 nM.

B16: 8B4-74C (Fab) (Fab, V domains shown)
VH: EVQVLESGGGLVQPGGSLRLSCAASGFTFSNYAMTWVRQAPGKGLEWVSTISGRGYSIYYADSVKGRFTISRDNSKNTVYLQMNSLRAEDTAVYYCAKEEGHWYFDVWGRGTLVTVSS
VL: EIVLTQSPDFQSVTPKEKVTITCRASQSIGSSLHWYQQKPDQSPKLLIKYASQSFSGVPSRFSGSGSGTDFTLTINSLEAEDAAAYYCMSSLGLPYTFGQGTKLEIK
notes: as for B9
In assay [3], B16 returned a Kd of 0.045 nM.

One may read the Kd as the free concentration of one partner at which half of the binding sites on the other are occupied at equilibrium, for simple one-to-one binding. Higher therefore signals weaker binding.
